Laboratory results as given in the supplement of paper PMC11316812.
± gives the standard deviation of the averaged measurements.

Tests used:
hTERT-HMEC = experiment: percentage of EdU-negative (G0-arrested) nuclei per well, 72 h; higher = more G0 arrest; conditions: reference: sequence is the full UniProt precursor, the tested protein was the secreted form or ectodomain
MCF7 = experiment: as above; conditions: reference: sequence is the full UniProt precursor, the tested protein was the secreted form or ectodomain
[1] = protein concentration 0.0225 µM
[2] = protein concentration 0.03125 µM
[3] = protein concentration 0.3125 µM
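Further: secreted proteins added to cultured cells, EdU pulse at the end, nuclei found by Hoechst imaging, EdU status from nuclear versus surrounding ring intensity ratio, PBS as neutral control.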

For “MGGRVFLAFCVWLTLPGAETQDSRGCARWCPQNSSCVNATACRCNPGFSSFSEIITTPTETCDDINECATPSKVSCGKFSDCWNTEGSYDCVCSPGYEPVSGAKTFKNESENTCQDVDECQQNPRLCKSYGTCVNTLGSYTCQCLPGFKFIPEDPKVCTDVNECTSGQNPCHSSTHCLNNVGSYQCRCRPGWQPIPGSPNGPNNTVCEDVDECSSGQHQCDSSTVCFNTVGSYSCRCRPGWKPRHGIPNNQKDTVCEDMTFSTWTPPPGVHSQTLSRFFDKVQDLGRDSKTSSAEVTIQNVIKLVDELMEAPGDVEALAPPVRHLIATQLLSNLEDIMRILAKSLPKGPFTYISPSNTELTLMIQERGDKNVTMGQSSARMKLNWAVAAGAEDPGPAVAGILSIQNMTTLLANASLNLHSKKQAELEEIYESSIRGVQLRRLSAVNSIFLSHNNTKELNSPILFAFSHLESSDGEAGRDPPAKDVMPGPRQELLCAFWKSDSDRGGHWATEGCQVLGSKNGSTTCQCSHLSSFAILMAHYDVEDWKLTLITRVGLALSLFCLLLCILTFLLVRPIQGSRTTIHLHLCICLFVGSTIFLAGIENEGGQVGLRCRLVAGLLHYCFLAAFCWMSLEGLELYFLVVRVFQGQGLSTRWLCLIGYGVPLLIVGVSAAIYSKGYGRPRYCWLDFEQGFLWSFLGPVTFIILCNAVIFVTTVWKLTQKFSEINPDMKKLKKARALTITAIAQLFLLGCTWVFGLFIFDDRSLVLTYVFTILNCLQGAFLYLLHCLLNKKVREEYRKWACLVAGGSKYSEFTSTTSGTGHNQTRALRASESGI”, the “percentage of EdU-negative” value (hTERT-HMEC; [1]) was 5.19 ± 0.7%, the “percentage of EdU-negative” value (hTERT-HMEC; protein concentration 0.225 µM) was 5.66 ± 0.12% and the “percentage of EdU-negative” value (MCF7; [1]) was 24.7 ± 1.8%. For the same sequence, the “percentage of EdU-negative” value (MCF7; protein concentration 0.225 µM) was 26.3 ± 3.2%.

“MGHLSAPLHRVRVPWQGLLLTASLLTFWNPPTTAQLTTESMPFNVAEGKEVLLLVHNLPQQLFGYSWYKGERVDGNRQIVGYAIGTQQATPGPANSGRETIYPNASLLIQNVTQNDTGFYTLQVIKSDLVNEEATGQFHVYPELPKPSISSNNSNPVEDKDAVAFTCEPETQDTTYLWWINNQSLPVSPRLQLSNGNRTLTLLSVTRNDTGPYECEIQNPVSANRSDPVTLNVTYGPDTPTISPSDTYYRPGANLSLSCYAASNPPAQYSWLINGTFQQSTQELFIPNITVNNSGSYTCHANNSVTGCNRTTVKTIIVTELSPVVAKPQIKASKTTVTGDKDSVNLTCSTNDTGISIRWFFKNQSLPSSERMKLSQGNTTLSINPVKREDAGTYWCEVFNPISKNQSDPIMLNVNYNALPQENGLSPGAIAGIVIGVVALVALIAVALACFLHFGKTGRASDQRDLTEHKPSVSNHTQDHSNDPPNKMNEVTYSTLNFEAQQPTQPTSASPSLTATEIIYSEVKKQ” was tested, and the “percentage of EdU-negative” value (hTERT-HMEC; [1]) was 5.04 ± 1.4%, the “percentage of EdU-negative” value (hTERT-HMEC; protein concentration 0.225 µM) was 7.07 ± 0.44% and the “percentage of EdU-negative” value (MCF7; [1]) was 24.7 ± 1.3%. For the same sequence, the “percentage of EdU-negative” value (MCF7; protein concentration 0.225 µM) was 26.6 ± 0.95%.

In the case of “MGHPPLLPLLLLLHTCVPASWGLRCMQCKTNGDCRVEECALGQDLCRTTIVRLWEEGEELELVEKSCTHSEKTNRTLSYRTGLKITSLTEVVCGLDLCNQGNSGRAVTYSRSRYLECISCGSSDMSCERGRHQSLQCRSPEEQCLDVVTHWIQEGEEGRPKDDRHLRGCGYLPGCPGSNGFHNNDTFHFLKCCNTTKCNEGPILELENLPQNGRQCYSCKGNSTHGCSSEETFLIDCRGPMNQCLVATGTHEPKNQSYMVRGCATASMCQHAHLGDAFSMNHIDVSCCTKSGCNHPDLDVQYRSGAAPQPGPAHLSLTITLLMTARLWGGTLLWT”, the “percentage of EdU-negative” value (hTERT-HMEC; [2]) is reported as 5.81 ± 0.25%, the “percentage of EdU-negative” value (hTERT-HMEC; [3]) is reported as 5.79 ± 0.076% and the “percentage of EdU-negative” value (MCF7; [2]) is reported as 23.5 ± 1.9%. For the same sequence, the “percentage of EdU-negative” value (MCF7; [3]) was 21 ± 1.2%.

For “MGHRFLRGLLTLLLPPPPLYTRHRMLGPESVPPPKRSRSKLMAPPRIGTHNGTFHCDEALACALLRLLPEYRDAEIVRTRDPEKLASCDIVVDVGGEYDPRRHRYDHHQRSFTETMSSLSPGKPWQTKLSSAGLIYLHFGHKLLAQLLGTSEEDSMVGTLYDKMYENFVEEVDAVDNGISQWAEGEPRYALTTTLSARVARLNPTWNHPDQDTEAGFKRAMDLVQEEFLQRLDFYQHSWLPARALVEEALAQRFQVDPSGEIVELAKGACPWKEHLYHLESGLSPPVAIFFVIYTDQAGQWRIQCVPKEPHSFQSRLPLPEPWRGLRDEALDQVSGIPGCIFVHASGFIGGHRTREGALSMARATLAQRSYLPQIS [Q9HB07]”, the “percentage of EdU-negative” value (hTERT-HMEC; [1]) was 4.42 ± 0.079%, the “percentage of EdU-negative” value (hTERT-HMEC; protein concentration 0.225 µM) was 11 ± 1.7% and the “percentage of EdU-negative” value (MCF7; [1]) was 26.7 ± 1.3%. The “percentage of EdU-negative” value (MCF7; protein concentration 0.225 µM) was 27.2 ± 0.95%.
